B1: 19H01 (hybridoma) (antibody, V domains shown)
VH: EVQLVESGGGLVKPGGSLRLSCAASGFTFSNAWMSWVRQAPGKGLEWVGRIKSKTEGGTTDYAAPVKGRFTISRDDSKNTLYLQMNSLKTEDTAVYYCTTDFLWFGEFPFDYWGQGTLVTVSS
VL: DIQMTQSPSSLSASVGDRVTITCRASQGISNYLAWYQQKPGKIPKLLIYAASTLQSGVPSRFSGSGSGTDFTLTISSLQPEDVATYYCQKYNSAPRTFGQGTKVEIK
notes: Purified from hybridoma supernatant as a murine/human chimeric antibody (human variable domains, mouse constant regions)
B2: 2D10 (human) (antibody, human IgG4 S228P, kappa, V domains shown)
VH: EVQLVESGGGLVQPGGSLRLSCAASGFTFSNYAMNWVRQAPGKGLEWVSTISGSGGATRYADSVKGRFTISRDNSRNTVYLQMNSLRVEDTAVFYCTKDRLIMATVRGPYYYGMDVWGQGTTVTVSS
VL: DIQMTQSPSSLSASVGDRVTITCRASQSISSYLNWYQQKPGKAPNLLIYAASSLQSGVPSRFSGSGSETDFTLTISSLQPEDFATYYCQQSHSVSFTFGPGTKVDIKR
notes: Fully human recombinant IgG4-PE (Ser228Pro, Leu235Glu) with human kappa light chain, expressed in CHO-S; also called 02D10; 2D10 IgG4PE
B3: 9H04 (hybridoma) (antibody, V domains shown)
VH: QVQLVESGGGLVKPGGSLRLSCAASRFTLSDYYMTWIRQAPGKGLEWVSYISSSGNTIYYADSVKGRFTISRDNAKNSLYLQMNSLRAEDTAVYYCARDLSGSYWDYYYGMDVWGQGTTVTVSS
VL: AIQLTQSPSSLSTSVGDRVTIACRASQGINNALAWYQQKPGKAPKLLIYDASSLESGVPSRFSGSGSGTDFTLTISSLQPEDFATYYCQQFNSYPRTFGQGTKVEIK
notes: Purified from hybridoma supernatant as a murine/human chimeric antibody (human variable domains, mouse constant regions); also called 09H04

How the values were obtained:
[1] = target: T1, Recombinant Human OX40L (Leader sequence, Isoleucine Zipper and FLAG Sequence Included) (human); assay: SPR (ProteOn XPR36), antibody captured on anti-mouse IgG, OX40L at 256 nM, 1:1 model, apparent affinity, 25 C
T1 construct: In-house construct: extracellular domain of human OX40L with a FLAG motif and an isoleucine zipper to aid trimerisation; It was used biotinylated in the HTRF assays and unlabelled in SPR and the T-cell assay; also called hOX40L; biotinylated OX40L

[2] = target: T1, Recombinant Human OX40L (Leader …); assay: HTRF ligand/receptor neutralisation, biotinylated hOX40L with OX40RFc-AF647 as competitor; mean of three experiments
[3] = target: T1, Recombinant Human OX40L (Leader …); assay: cell-based or functional assay

T1 sequence (chain, as listed by the source limits assumed): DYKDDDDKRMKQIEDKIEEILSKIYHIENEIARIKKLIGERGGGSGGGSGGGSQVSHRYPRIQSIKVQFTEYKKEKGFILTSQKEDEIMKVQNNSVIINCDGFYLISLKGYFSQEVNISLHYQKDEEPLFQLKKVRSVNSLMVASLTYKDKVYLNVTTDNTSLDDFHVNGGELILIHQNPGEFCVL

| Binder | Kd [1] | IC50 [2] | Primary T-cell Assay IC50 (recombinant OX40L induced IL2 release from primary human T-cells) [3] |
| --- | --- | --- | --- |
| B1 | 2.2 nM |  |  |
| B2 |  | 0.75 nM | 0.81 nM |
| B3 | 5.3 nM |  |  |
